Experimental data from patent US12662530.

Tests used:
[1] = target: human recombinant adrenomedullin receptor (CRLR+RAMP3) (human)
[2] = target: human recombinant adrenomedullin receptor (CRLR+RAMP3) (human); remark: listed apart in the source

In the case of “human ADM 22-52 (from UniProt P35318) (peptide)”, the IC50 (read off the curve), inhibition of cAMP stimulation by 5.63 nM hADM [1] is reported as 0.2 µM and the IC50 (read off the curve), inhibition of cAMP stimulation by 0.67 nM mADM [2] is reported as 2 µM.
